Consider one molecule from patent US20090081211A1 (published 2009).

The term Kd denotes a measure of binding affinity in units of concentration. A higher Kd goes with a looser complex.

The target of the test is human C3b (UniProt P01024 23-667; P01024 749-1663). The experiment in a line: SPR. In general terms: SPR reads the build-up and loss of mass on a sensor chip optically.
Sequence of human C3b (P01024 other isoform, or with tags, fused parts or gaps, chain 1 of 2): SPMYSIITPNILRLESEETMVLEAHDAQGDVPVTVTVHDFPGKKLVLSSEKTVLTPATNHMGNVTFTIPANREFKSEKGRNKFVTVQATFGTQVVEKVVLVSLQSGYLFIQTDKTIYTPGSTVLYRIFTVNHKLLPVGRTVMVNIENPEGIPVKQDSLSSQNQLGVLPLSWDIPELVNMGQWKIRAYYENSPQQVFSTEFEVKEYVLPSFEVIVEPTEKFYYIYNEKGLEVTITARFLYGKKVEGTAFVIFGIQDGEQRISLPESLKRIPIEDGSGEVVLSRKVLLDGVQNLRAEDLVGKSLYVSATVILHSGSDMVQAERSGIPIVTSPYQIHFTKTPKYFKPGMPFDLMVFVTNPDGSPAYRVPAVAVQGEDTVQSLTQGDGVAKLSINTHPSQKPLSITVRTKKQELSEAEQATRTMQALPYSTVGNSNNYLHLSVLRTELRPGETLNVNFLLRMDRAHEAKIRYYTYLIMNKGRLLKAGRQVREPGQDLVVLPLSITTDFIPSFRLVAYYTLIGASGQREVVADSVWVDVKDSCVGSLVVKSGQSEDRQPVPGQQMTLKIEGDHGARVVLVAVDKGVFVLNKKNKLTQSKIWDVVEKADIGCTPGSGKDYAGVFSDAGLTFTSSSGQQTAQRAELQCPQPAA
Sequence of human C3b (P01024 other isoform, or with tags, fused parts or gaps, chain 2 of 2): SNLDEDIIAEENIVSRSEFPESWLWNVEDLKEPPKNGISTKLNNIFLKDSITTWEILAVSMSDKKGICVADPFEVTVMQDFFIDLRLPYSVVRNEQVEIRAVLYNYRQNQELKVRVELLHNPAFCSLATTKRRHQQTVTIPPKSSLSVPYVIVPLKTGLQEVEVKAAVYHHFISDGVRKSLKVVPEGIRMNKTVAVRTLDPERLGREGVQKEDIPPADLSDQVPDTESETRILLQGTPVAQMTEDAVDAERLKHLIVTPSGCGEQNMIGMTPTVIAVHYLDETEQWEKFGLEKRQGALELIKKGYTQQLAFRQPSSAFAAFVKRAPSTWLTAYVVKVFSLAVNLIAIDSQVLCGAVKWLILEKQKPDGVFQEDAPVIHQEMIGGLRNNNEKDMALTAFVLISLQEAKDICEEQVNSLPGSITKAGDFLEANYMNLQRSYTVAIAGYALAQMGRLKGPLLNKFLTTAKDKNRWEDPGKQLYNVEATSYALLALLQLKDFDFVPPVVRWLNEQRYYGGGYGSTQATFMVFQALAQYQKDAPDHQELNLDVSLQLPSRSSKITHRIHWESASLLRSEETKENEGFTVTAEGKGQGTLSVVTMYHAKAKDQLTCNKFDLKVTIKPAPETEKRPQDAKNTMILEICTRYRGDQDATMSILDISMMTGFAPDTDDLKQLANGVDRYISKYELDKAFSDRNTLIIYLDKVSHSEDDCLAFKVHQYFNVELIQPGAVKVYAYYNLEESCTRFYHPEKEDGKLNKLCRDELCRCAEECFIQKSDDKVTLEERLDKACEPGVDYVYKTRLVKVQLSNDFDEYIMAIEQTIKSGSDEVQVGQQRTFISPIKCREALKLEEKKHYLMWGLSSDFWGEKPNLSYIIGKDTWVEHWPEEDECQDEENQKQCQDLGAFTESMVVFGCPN

B1: antibody YW144.2.43.S77 Fab fragment (Fab, V domains shown)
VH: EVQLVESGGGLVQPGGSLRLSCAASGFSFTSSSVSWVRQAPGKGLEWVGLIYPYNGFNYYADSVKGRFTISADTSKNTAYLQMNSLRAEDTAVYYCARNALYGSGGYYAMDYWGQGTLVTVSS
VL: DIQMTQSPSSLSASVGDRVTITCRASQDVSTAVAWYQQKPGKAPKLLIYSASFLYSGVPSRFSGSGSGTDFTLTISSLQPEDFATYYCQQSYATLPTFEQGTKVEIK
B1: the Kd was determined as 6.47 nM.
